This note sets out measurements from US20090298761A1 (MARIEL THERAPEUTICS, published 2009).

The target of test [1] is T1, OP-1 pro domain, intact form (human, UniProt P18075 30-292).
T1 construct: Cleaved pro domain of 39 kDa; also called pro region; full length pro region (residues 30-292)
Description: gel filtration (Sephacryl S-200HR in TBS) of soluble OP-1 complex purified from CHO conditioned media without denaturants; complex elutes at an apparent 110 kDa. The protocol: The 50 mM imidazole eluate containing the soluble OP-1 complex was diluted with nine volumes of 20 mM NaPO₄ (pH 7.0) and applied to an S-Sepharose (Pharmacia) column equilibrated in 20 mM NaPO₄ (pH 7.0) with 50 mM NaCl. The S-Sepharose resin was loaded with an equivalent of 800 mL of starting conditioned media per mL of resin. After loading the S-Sepharose column was washed with equilibration buffer and eluted with 100 mM NaCl followed by 300 mM and 500 mM NaCl in 20 mM NaPO₄ (pH 7.0). The 300 mM NaCl pool was further purified using gel filtration chromatography. Fifty mls of the 300 mm NaCl eluate was applied to a 5.0×90 cm Sephacryl S-200HR (Pharmacia) equilibrated in Tris buffered saline (TBS), 50 mM Tris, 150 mM NaCl (pH 7.4). […] The apparent molecular of the soluble OP-1 was determined by comparison to protein molecular weight standards (alcohol dehydrogenase (ADH, 150 kDa), bovine serum albumin (BSA, 68 kDa), carbonic anhydrase (CA, 30 kDa) and cytochrome C (cyt C, 12.5 kDa) (see FIG. 3). The purity of the S-200 column fractions was determined by separation on standard 15% polyacrylamide SDS gels stained with coomassie blue. The identity of the mature OP-1 and the pro-domain was determined by N-terminal sequence analysis after separation of the mature OP-1 from the pro-domain using standard reverse phase C18 HPLC.
In general terms: SEC sorts molecules by how far they enter the pores of the column.

Test [2] addresses T2, OP-1 pro domain, truncated form (human, UniProt P18075 48-292).
T2 construct: also called truncated form of the pro region (beginning at residue 48); 48-292 truncated form
Description: reverse phase C18 HPLC separation of the purified soluble complex into pro domain and mature species, then N-terminal sequencing. An excerpt:
The complex components can be verified by running the complex-containing fraction from the S-200 or S-200HR columns over a reverse phase C18 HPLC column and eluting in an acetonitrile gradient (in 0.1% TFA), using standard procedures. The complex is dissociated by this step, and the pro domain and mature species elute as separate species. These separate species then can be subjected to N-terminal sequencing using standard procedures (see, for example, Guide to Protein Purification, M. Deutscher, ed., Academic Press, San Diego, 1990, particularly pp. 602-613), and the identity of the isolated 36 kD, 39 kDa proteins confirmed as mature morphogenic protein and isolated, cleaved pro domain, respectively.

T2 sequence (P18075 48-292): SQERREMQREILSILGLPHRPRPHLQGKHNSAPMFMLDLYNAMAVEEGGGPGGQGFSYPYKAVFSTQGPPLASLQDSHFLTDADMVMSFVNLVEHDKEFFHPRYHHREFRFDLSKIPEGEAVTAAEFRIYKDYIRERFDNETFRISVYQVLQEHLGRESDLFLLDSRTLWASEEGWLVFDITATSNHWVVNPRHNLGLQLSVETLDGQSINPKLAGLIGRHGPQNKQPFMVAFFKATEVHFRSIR
T1 sequence (P18075 30-292): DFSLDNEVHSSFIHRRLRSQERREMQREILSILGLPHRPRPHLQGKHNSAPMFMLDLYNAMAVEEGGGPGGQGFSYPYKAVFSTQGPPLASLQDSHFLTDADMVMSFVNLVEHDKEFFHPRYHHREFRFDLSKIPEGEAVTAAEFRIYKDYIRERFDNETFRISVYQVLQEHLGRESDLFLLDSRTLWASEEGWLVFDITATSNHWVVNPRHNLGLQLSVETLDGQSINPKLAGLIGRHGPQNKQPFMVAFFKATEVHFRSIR

B1: mature OP-1 dimer (ligand)
chain: STGSKQRSQNRSKTPKNQEALRMANVAENSSSDQRQACKKHELYVSFRDLGWQDWIIAPEGYAAYYCEGECAFPLNSYMNATNHAIVQTLVHFINPETVPKPCCAPTQLNAISVLYFDDSSNVILKKYRNMVVRACGCH
notes: Expressed in CHO cells and purified as part of the soluble OP-1 complex; The dimer runs at 35-36 kDa; also called BMP-7; osteogenic protein-1
Consider B1, for which the binding result in test [1] and in test [2] was “binds” each time.
